From PMC11700839

Target: ETS1 transcription factor (endogenous, FP-RMS cells) (human (endogenous in Rh30 and Rh41)) (UniProt P14921)
Assay: co-IP; endogenous proteins from Rh30 and Rh41 cells, IP with ETS1 antibody (rabbit IgG as negative control), immunoblot; also with Ethidium Bromide or Benzonase in the IP; also cells pre-treated 16 hours with 1 µM YK-4-279 or DMSO and the same included in the IP reaction, recovery by densitometry normalized to ETS1

Sequence of UniProt P14921 (P14921 whole entry): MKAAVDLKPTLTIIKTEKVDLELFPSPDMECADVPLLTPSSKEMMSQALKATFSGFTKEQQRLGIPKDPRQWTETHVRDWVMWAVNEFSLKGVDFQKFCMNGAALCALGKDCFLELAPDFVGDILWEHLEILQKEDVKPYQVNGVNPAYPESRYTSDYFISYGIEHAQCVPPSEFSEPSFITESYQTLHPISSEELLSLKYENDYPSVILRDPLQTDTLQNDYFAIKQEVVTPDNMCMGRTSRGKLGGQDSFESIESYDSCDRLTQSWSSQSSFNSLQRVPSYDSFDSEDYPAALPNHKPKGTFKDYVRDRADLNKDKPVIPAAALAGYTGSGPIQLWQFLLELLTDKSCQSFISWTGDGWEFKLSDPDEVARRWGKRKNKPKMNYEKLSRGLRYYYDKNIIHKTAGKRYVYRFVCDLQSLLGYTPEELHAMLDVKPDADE

Question: With “PAX3-FOXO1 oncofusion (endogenous, FP-RMS cells) (natural protein)” as the substance, how does the co-immunoprecipitated PAX3-FOXO1 with 1 µM YK-4-279, percent of DMSO control (Rh30 cells) (% of DMSO control) read?
Answer: 50

Question: And the co-immunoprecipitated PAX3-FOXO1 with 1 µM YK-4-279, percent of DMSO control (Rh41 cells) (% of DMSO control)?
Answer: 65
